Laboratory results taken from patent US20220288204A1, “DOSAGE AND ADMINISTRATION OF ANTI-ERBB3 (HER3) MONOCLONAL ANTIBODIES TO TREAT TUMORS ASSOCIATED WITH NEUREGULIN 1 (NRG1) GENE FUSIONS” (ELEVATION ONCOLOGY, INC., priority 2021, published 2022).
Entries after “also recorded” stand apart in the source; their conditions may differ.

Tests used:
[1] = system: HER2, HER3, EGFR and downstream effectors in HCC-95 cells; assay: Western blotting of protein phosphorylation; type: cell-based, human
Description: (§1) These events likely culminate in inhibition of growth and impaired survival.

[2] = system: EGFR, HER2, HER3, HER4, downstream signaling, apoptosis and cell-cycle proteins in MDA-MB-175-VII cells; assay: Western blotting of protein phosphorylation and expression; type: cell-based, human
Description: Whole-cell extracts were prepared after all treatments and subjected to SDS-PAGE, followed by immunoblotting for the phosphorylated (p) or total (t) proteins shown in each panel. All Western blotting studies were conducted at least two times and representative immunoblots of phosphorylated (p) and total (t) proteins are shown.
as §1
As observed with phosphor-ylation of some proteins, cyclin D1 level began to be restored by 12 hours (FIG. 4D).

[3] = system: HER2, HER3, AKT, ERK1/2 phosphorylation and BIM in LUAD-0061AS3 PDX tumors; assay: Western blotting of PDX tumor lysates after single administration; type: in vivo, mice
Description: (§2) Characterization of the […] PDX model. H&E staining, TTF-1, and phospho-HER3 IHC (FIG. 5A, left to right). […] (FIG. 5B). Tumor volumes were measured twice weekly and plotted overtime. Results represent the mean±SEM. […] Western blotting was performed twice for each protein and representative immunoblots of phosphorylated (p) and total (t) proteins are shown (FIG. 5C).
(§3) Crushed PDX tumor samples were mixed with Matrigel (50%) and injected into the subcutaneous flank of 6-week-old female NSG (LUAD-0061AS3) or Balb/c nude (OV-10-0050) mice. When tumors reached approximately 100-150 mm3, mice were randomly assigned to groups of 5-8 and treatment was commenced. There were 2 mice per group with bilateral flank tumors for the protein phosphorylation/expression study in the LUAD-0061AS3 PDX model. Drugs were administered once, and then tumors were collected at 2, 24, and 168 hours posttreatment. Afatinib was administered by oral gavage once daily as a suspension (in 0.5% methylcellulose-0.4% Tween-80) on a 5-days-on and 2-days-off schedule. […] Mice were observed daily throughout the treatment period for signs of morbidity and mortality. Tumor length and width and animal weights were measured twice weekly. Tumor volume was calculated using the empirical formula V=length×width 2×0.52. The percentage change in tumor volume of each tumor was calculated using the formula [(V2−V1)/V1)]×100, where V1 is the starting tumor volume and V2 is the final tumor volume.
Protein phosphorylation was then detected by Western blotting of PDX tumor lysates.

[4] = system: MDA-MB-175-VII cells; assay: Time-course growth by cell counting; type: cell-based, human
Description: (§4) Expression of […] (FIG. 1A) or SLC3A2-NRG1 (FIG. 2B) fusions in MDA-MB-175-VII and LUAD-0061AS3 cells, respectively, was determined by RT-PCR. The HBECp53 (NRG1 fusion negative) and HBECp53-SLC3A2-NRG1 cells were used as negative and positive controls, respectively. […] Viability results represent the mean±SEM of 2-5 independent experiments in which each condition was assayed in triplicate determinations. Viability data were analyzed by nonlinear regression and the IC50 values for growth inhibition and the 95% confidence interval were determined with GraphPad Prism 8. […] Results represent the mean±SD for one experiment in which each condition was assayed in duplicate.
(§5) For the time-course experiments, cells were plated at a density of 5,000 (HCC-95) or 10,000 (all others) cells per well in 12-well tissue culture plates, and then treated 24 hours later (time 0) with the respective agents. […] Cells were trypsinized and counted at the relevant time-point shown on the graphs. For dose-response studies, cells were plated at a density of 7,500-10,000 cells in white clear-bottom 96-well plates in a volume of […] complete growth media and […] chemicals added at 10× concentration (to achieve 1× concentration) in a final volume of […]. After 96-hour incubation, […] AlamarBlue cell viability reagent was added to achieve a final concentration of 10%. AlamarBlue is a cell permeable […] dye that is reduced when it enters the mitochondria and emits fluorescence at a different wavelength (Gloeckner H, J. Immunol. Methods 2001; 252:131-8). Fluorescence was measured (excitation, 530 nm and emission, 585 nm) using a […] Spectramax M2 Fluorescence Plate Reader, as described previously (Somwar R, J. Biomol. Screen 2009; 14:1176-84). In each experiment, background fluorescence was determined in cells treated with […] of the 20S proteasome inhibitor, carfilzomib, which is toxic to most cells at high concentrations, and was subtracted from all values. There were 3-4 replicates of each condition. Relative IC50 values and 95% confidence interval values were determined by nonlinear regression analysis using GraphPad Prism 8 software using either a variable slope model or in cases where inhibition was only partial, a three-parameter fit was used. […] Each condition was assayed in triplicate in 2-5 independent experiments.
(§6) In these experiments, the MDA-MB-175 and LUAD-0061AS3 cell lines, isogenic HBECp53 cells ectopically expressing a CD74-NRG1 fusion, and the NRG1-amplified lung cancer cell line, HCC-95 (FIGS. 1E-H) were used. […] Afatinib sensitivity of HCC-95 cells was not examined in this study.

[5] = system: HCC-95 cells; assay: Time-course growth by cell counting; type: cell-based, human; details: lowest antibody concentration
Description: as §4, §5, §6

[6] = system: HBECp53-CD74-NRG1 cells; assay: Time-course growth by cell counting; type: cell-based, human; details: highest concentration of seribantumab
Description: as §4, §5, §6

[7] = system: LUAD-0061AS3 PDX tumors; assay: NSCLC PDX model efficacy (SLC3A2-NRG1); type: in vivo, mice
Description: as §2, §3
The 5 mg/kg daily dose of afatinib is equivalent to the human dose of […] daily, which is the maximum approved dose for patients.
The tumor volume as a function of time is illustrated in FIG. 5B, and the AUC computed for each group to facilitate comparison of tumor volume between groups at the last date all groups had surviving animals (day 35) was determined. […] The highest dose of afatinib (15 mg/kg) was also effective at causing regression of six of seven tumors in the.

[8] = system: xenograft tumors generated from OVCAR8 cells; details: Sheng Q, et al., Cancer Cell 2010; cited from earlier work

B1: seribantumab: anti-ERBB3 (HER3) fully human monoclonal antibody; heavy and light chains SEQ ID NOs: 12 and 13 (antibody)
heavy: EVQLLESGGGLVQPGGSLRLSCAASGFTFSHYVMAWVRQAPGKGLEWVSSISSSGGWTLYADSVKGRFTISRDNSKNTLYLQMNSLRAEDTAVYYCTRGLKMATIFDYWGQGTLVTVSSASTKGPSVFPLAPCSRSTSESTAALGCLVKDYFPEPVTVSWNSGALTSGVHTFPAVLQSSGLYSLSSVVTVPSSNFGTQTYTCNVDHKPSNTKVDKTVERKCCVECPPCPAPPVAGPSVFLFPPKPKDTLMISRTPEVTCVVVDVSHEDPEVQFNWYVDGVEVHNAKTKPREEQFNSTFRVVSVLTVVHQDWLNGKEYKCKVSNKGLPAPIEKTISKTKGQPREPQVYTLPPSREEMTKNQVSLTCLVKGFYPSDIAVEWESNGQPENNYKTTPPMLDSDGSFFLYSKLTVDKSRWQQGNVFSCSVMHEALHNHYTQKSLSLSPGK
light: QSALTQPASVSGSPGQSITISCTGTSSDVGSYNVVSWYQQHPGKAPKLIIYEVSQRPSGVSNRFSGSKSGNTASLTISGLQTEDEADYYCCSYAGSSIFVIFGGGTKVTVLGQPKAAPSVTLFPPSSEELQANKATLVCLVSDFYPGAVTVAWKADGSPVKVGVETTKPSKQSNNKYAASSYLSLTPEQWKSHRSYSCRVTHEGSTVEKTVAPAECS
- EGFR phosphorylation [1]: little effect
- phosphorylation of HER2, HER3, and downstream effectors [1]: inhibited phosphorylation
- phosphorylation of AKT over time ([2]; 2 mmol/L seribantumab, up to 24 hours): remained completely inhibited for the entire 24-hour treatment period
- expression of proapoptotic proteins cleaved-PARP and PUMA ([2]; seribantumab, 6-24 hours): elevated
- level of cyclin D1 ([2]; seribantumab, up to 24 hours): undetectable by 6 hours
- time to full inhibition of phosphorylation of HER3, HER4, and downstream signaling ([2]; seribantumab, up to 24 hours): 30 min
- phosphorylation of HER3, HER2, EGFR, and HER4 ([2]; serum-starved, 3 hours): fully inhibited
- BIM expression in tumors ([3]; 0.75 and 1 mg seribantumab, by 2 hours): higher levels of BIM than vehicle-treated tumors
- phosphorylation of HER2, HER3, AKT, and ERK1/2 in tumors ([3]; all doses of seribantumab (0.6, 0.75, 1 mg), single administration, 2-hour timepoint): reduced phosphorylation
- BIM expression in tumors ([3]; all doses of seribantumab, 168-hour timepoint): Elevated BIM was present
- BIM expression in tumors ([3]; all doses of seribantumab, after 24 hours): Induction of BIM expression was clearly seen
- HER2 phosphorylation in tumors ([3]; seribantumab higher doses, 168 hours): remained inhibited even after 168 hours
- time at which growth was slowed after start of treatment ([4]; seribantumab 0.1, 1, 10 μmol/L): 24 h
- cell growth over time ([4]; seribantumab 1 and 10 μmol/L, 12 days): growth was blocked for the entire 12-day period
- cell growth over time [5]: growth completely inhibited
- cell growth over time [6]: almost complete inhibition of growth
- tumors with regression ([7]; 0.75 mg seribantumab twice weekly): four of seven
- efficacy compared with afatinib ([7]; 1 mg BIW seribantumab vs 15 mg/kg daily afatinib): as effective as the 15 mg/kg daily dose of afatinib; also recorded: as effective as the highest dose of afatinib
- tumors with regression ([7]; 1 mg seribantumab twice weekly): six of seven
- maximum tumor reduction ([7]; 1 mg seribantumab twice weekly, by day 42): 57.2%±2.6%
- tumor volume ([7]; all doses of seribantumab tested (0.6, 0.75, 1 mg twice weekly)): bigger decrease in tumor volume
- tumor regression ([7]; dosage lower than that used in human trials): more than 50%
- growth of xenograft tumors [8]: block growth of xenograft tumors
